Assay results from patent EP0569583B1, “[…] OF POLYETHER-S[…] AGENTS IN DIAGNOSIS AND THERAPY” (Deutsches Krebsforschungszentrum Stiftung des öffentlichen …, priority 1991, dated 1993).

How the values were obtained:
Ovarialcarcinom = assay: Whole-body distribution of radioiodine activity in tumour-bearing rat (Fig. 4, Fig. 5); assay type: in vivo, BDIX-Ratte
Description: (§1) Bei allen diesen Anwendungsversuchen wurden immer 300 µC = 11,1 MBq verabreicht Es zeigten sich mit den eingesetzten Mitteln, nämlich 1a und 1c und die Verbindung aus Beispiel 2 eine Konzentration von mindestens 30% des Mittels an der gewünschten Stelle, also am Tumor. Die beigefügte Fig. 4 zeigt das Bild einer BDIX-Ratte mit Ovarialcarcinom 42 h nach Injektion, die mit ^131J-HOPAD-CMPEG, also ^131J-Hydroxyphenyl-1-aminome-than-1,1-diphosphonat-Cyanurchlorid aktiviertes Polyethylenglykol (n=ca. 100 bis 110) in einer Menge von 300 µC behandelt war. Das Bild zeigt, daß ganz unten, im Tumor ca. 30+/-2% des Mittels konzentriert sind, während in der Mitte die Leber ca. 10% zeigt und die Schilddrüse, die oberhalb der Leber sichtbar ist, weit weniger als 2% des Mittels aufgenommen hat Diese %-Angaben beziehen sich auf die Gesamtmenge an die mit radiojodmarkierten Mittel im Gesamtkörper der Ratte.
Die beigefügte Fig. 5 zeigt die Messung einer mit ^131I-TOP-(CMPEG)4 behandelten BD IX Ratte (auch hier Ovarialcarcinom). Es zeigt sich ein ähnliches Ergebnis wie das von Fig. 4.
Von der gesamten Körperaktivität an radioaktivem Jod finden sich nach 150 h etwa 23% im Tumor, etwa 12% in der Leber, etwa 5% im Blut und etwa 3-4% jeweils in den Muskeln und in der Schilddrüse. Der Rest ist natürlich, wie auch bei der Aufnahme von Fig. 4, über den restlichen Körper verteilt.

[1] = tested on: experimentelle Tumoren und Xenotransplantate; assay: Concentration of the radiolabelled agents in experimental tumours and human xenografts; assay type: in vivo, Ratte; Nacktmaus; conditions: 300 µC = 11,1 MBq administered; all tumour models tested (Beispiel 2 compound only in Walker Carcinosarcom, Osteosarcom, Ovarialcarcinom O-342)
Excerpt: Die Konzentrierung dieser Mittel wurde an folgenden experimentellen Tumoren und an folgenden Tiermodellen geprüft:
Alle diese experimentellen Tumoren und Xenotransplantate wurden mit den Verbindungen a und c gemäß Beispiel 1 (also 1a und 1c) und drei davon, nämlich das Walker Carcinosarcom, das Osteosarcom und das Ovarialcarcinom (O-342) auch mit dem Diphosphat gemäß Beispiel 2 untersucht.
as §1

[2] = BDIX-Ratte with Ovarialcarcinom, 42 h after injection, 300 µC, % of total labelled agent in whole body (Fig. 4)
[3] = BD IX Ratte with Ovarialcarcinom, after 150 h, % of total body activity of radioactive iodine (Fig. 5)

Substance	Leber (Ovarialcarcinom; [2])	Schilddrüse (Ovarialcarcinom; [2]) [%]	im Tumor konzentriert (Ovarialcarcinom; [2])	Konzentration des Mittels an der gewünschten Stelle, also am Tumor [1] [%]	im Blut (Ovarialcarcinom; [3]) [%]	im Tumor (Ovarialcarcinom; [3]) [%]	in den Muskeln (Ovarialcarcinom; [3])	in der Leber (Ovarialcarcinom; [3]) [%]	in der Schilddrüse (Ovarialcarcinom; [3])
^131J-Hydroxyphenyl-1-aminome-than-1,1-diphosphonat-Cyanurchlorid aktiviertes Polyethylenglykol (n=ca. 100 bis 110) [Beispiel 2]	ca. 10%	< 2	ca. 30+/-2%	≥ 30	–	–	–	–	–
^111-In-Tetra-(hydroxyphenoxy)-phthalocyanin-(CMPEG)4 [1c]	–	–	–	≥ 30	–	–	–	–	–
^131I-Tetra(hydroxyphenyl)-porphin-(CMPEG)4 [1a]	–	–	–	≥ 30	~5	~23	3-4%	~12	3-4%
